Results taken from US20240336909.

B1: MMP-7 (protein)
chain: YSLFPNSPKWTSKVVTYRIVSYTRDLPHITVDRLVSKALNMWGKEIPLHFRKVVWGTADIMIGFARGAHGDSYPFDGPGNTLAHAFAPGTGLGGDAHFDEDERWTDGSSLGINFLYAATHELGHSLGMGHSSDPNAVMYPTYGNGDPQNFKLSQDDIKGIQKLYGKRSNSRKK
B2: Matriptase (protein)
chain: VVGGTDADEGEWPWQVSLHALGQGHICGASLISPNWLVSAAHCYIDDRGFRYSDPTQWTAFLGLHDQSQRSAPGVQERRLKRIISHPFFNDFTFDYDIALLELEKPAEYSSMVRPICLPDASHVFPAGKAIWVTGWGHTQYGGTGALILQKGEIRVINQTTCENLLPQQITPRMMCVGFLSGGVDSCQGDSGGPLSSVEADGRIFQAGVVSWGDGCAQRNKPGVYTRLPLFRDWIKENTGV
B3: MMP-1 (protein)
chain: FVLTEGNPRWEQTHLTYRIENYTPDLPRADVDHAIEKAFQLWSNVTPLTFTKVSEGQADIMISFVRGDHRDNSPFDGPGGNLAHAFQPGPGIGGDAHFDEDERWTNNFREYNLHRVAAHELGHSLGLSHSTDIGALMYPSYTFSGDVQLAQDDIDGIQAIYGRSQNPVQPIGPQTPKACDSKLTFDAITTIRGEVMFFKDRFYMRTNPFYPEVELNFISVFWPQLPNGLEAAYEFADRDEVRFFKGNKYWAVQGQNVLHGYPKDIYSSFGFPRTVKHIDAALSEENTGKTYFFVANKYWRYDEYKRSMDPGYPKMIAHDFPGIGHKVDAVFMKDGFFYFFHGTRQYKFDPKTKRILTLQKANSWFNCRKN

Target: AxCT mask27 EGFR EH104 L058 version 1

Row | Protein | Percent cleavage
1 | B1 | 0%
2 | B2 | 23%
3 | B3 | 0%

Target: AxCT mask27 EGFR EH104 L063 version 1

Row | Protein | Percent cleavage
4 | B1 | 37%
5 | B2 | 49%
6 | B3 | 0%

Target: AxCT mask27 EpCAM H90 L001 version 1

Row | Protein | Percent cleavage
7 | B1 | 92%
8 | B2 | 42%
9 | B3 | 48%

Target: AxCT mask27 EpCAM H90.2 L061 version 1

Row | Protein | Percent cleavage
10 | B1 | 35%
11 | B2 | 22%
12 | B3 | 0%

Target: AxCT mask27 EGFR EH104 L059 version 1

Row | Protein | Percent cleavage
13 | B1 | 0%
14 | B2 | 33%
15 | B3 | 0%

Target: AxCT mask27 EGFR EH104 L060 version 1

Row | Protein | Percent cleavage
16 | B1 | 9%
17 | B2 | 62%
18 | B3 | 0%

Target: AxCT mask27 EGFR EH104 L056 version 1

Row | Protein | Percent cleavage
19 | B1 | 6%
20 | B2 | 39%
21 | B3 | 6%

Target: AxCT mask27 EGFR EH104 L072 version 1

Row | Protein | Percent cleavage
22 | B1 | 0%
23 | B2 | 0%
24 | B3 | 0%

Target: AxCT mask27 EGFR EH104 L069 version 1

Row | Protein | Percent cleavage
25 | B1 | 0%
26 | B2 | 0%
27 | B3 | 0%

Target: AxCT mask27 EGFR EH104 L062 version 1

Row | Protein | Percent cleavage
28 | B1 | 25%
29 | B2 | 52%
30 | B3 | 0%

Target: AxCT mask27 EGFR EH104 L057 version 1

Row | Protein | Percent cleavage
31 | B1 | 0%
32 | B2 | 36%
33 | B3 | 7%

Target: AxCT mask27 EGFR EH104 L067 version 1

Row | Protein | Percent cleavage
34 | B1 | 0%
35 | B2 | 0%
36 | B3 | 0%

Target: AxCT mask27 EpCAM H90.2 L041 version 1

Row | Protein | Percent cleavage
37 | B1 | 0%
38 | B2 | 80%
39 | B3 | 0%

Target: AxCT mask27 EGFR EH104 L064 version 1

Row | Protein | Percent cleavage
40 | B1 | 28%
41 | B2 | 0%
42 | B3 | 0%

Target: AxCT mask27 EGFR EH104 L065 version 1

Row | Protein | Percent cleavage
43 | B1 | 60%
44 | B2 | 0%
45 | B3 | 10%

Target: AxCT mask27 EpCAM H90.2 L063 version 1

Row | Protein | Percent cleavage
46 | B1 | 48%
47 | B2 | 68%
48 | B3 | 0%

Target: AxCT mask27 EGFR EH104 L054 version 1

Row | Protein | Percent cleavage
49 | B1 | 24%
50 | B2 | 37%
51 | B3 | 0%

Target: AxCT mask27 EGFR EH104 L066 version 1

Row | Protein | Percent cleavage
52 | B1 | 0%
53 | B2 | 0%
54 | B3 | 6%

Target: AxCT mask27 EpCAM H90.2 L076 version 1

Row | Protein | Percent cleavage
55 | B1 | 0%
56 | B2 | 0%
57 | B3 | 0%

Target: AxCT mask27 EpCAM H90.2 L073 version 1

Row | Protein | Percent cleavage
58 | B1 | 43%
59 | B2 | 0%
60 | B3 | 0%

Target: AxCT mask27 EGFR EH104 L041 version 1

Row | Protein | Percent cleavage
61 | B1 | 0%
62 | B2 | 62%
63 | B3 | 0%

Target: AxCT mask27 EGFR EH104 L061 version 1

Row | Protein | Percent cleavage
64 | B1 | 26%
65 | B2 | 20%
66 | B3 | 0%

Target: AxCT mask27 EGFR EH104 L040 version 1

Row | Protein | Percent cleavage
67 | B1 | 0%
68 | B2 | 67%
69 | B3 | 6%

Target: AxCT mask27 EGFR EH104 L071 version 1

Row | Protein | Percent cleavage
70 | B1 | 30%
71 | B2 | 0%
72 | B3 | 0%

Target: AxCT mask27 EGFR EH104 L055 version 1

Row | Protein | Percent cleavage
73 | B1 | 67%
74 | B2 | 53%
75 | B3 | 10%

Target: AxCT mask27 EpCAM H90.2 L060 version 1

Row | Protein | Percent cleavage
76 | B1 | 9%
77 | B2 | 92%
78 | B3 | 0%

Target: AxCT mask27 EGFR EH104 L043 version 1

Row | Protein | Percent cleavage
79 | B1 | 0%
80 | B2 | 59%
81 | B3 | 0%

Target: AxCT mask27 EpCAM H90.2 L059 version 1

Row | Protein | Percent cleavage
82 | B1 | 0%
83 | B2 | 39%
84 | B3 | 0%

Target: AxCT mask27 EpCAM H90.2 L040 version 1

Row | Protein | Percent cleavage
85 | B1 | 0%
86 | B2 | 93%
87 | B3 | 0%

Target: AxCT mask27 EGFR EH104 L070 version 1

Row | Protein | Percent cleavage
88 | B1 | 9%
89 | B2 | 13%
90 | B3 | 0%

Target: AxCT mask27 EGFR EH104 L073 version 1

Row | Protein | Percent cleavage
91 | B1 | 27%
92 | B2 | 0%
93 | B3 | 0%

Target: AxCT mask27 EpCAM H90.2 L043 version 1

Row | Protein | Percent cleavage
94 | B1 | 0%
95 | B2 | 79%
96 | B3 | 0%

Target: AxCT mask27 EGFR EH104 L068 version 1

Row | Protein | Percent cleavage
97 | B1 | 0%
98 | B2 | 0%
99 | B3 | 0%

Target: AxCT mask27 EpCAM H90.2 L075 version 1

Row | Protein | Percent cleavage
100 | B1 | 0%
101 | B2 | 0%
102 | B3 | 0%

Target: AxCT mask27 EpCAM H90.2 L064 version 1

Row | Protein | Percent cleavage
103 | B1 | 32%
104 | B2 | 0%
105 | B3 | 0%

Target: AxCT mask27 EGFR EH104 L001 version 1

Row | Protein | Percent cleavage
106 | B1 | 71%
107 | B2 | 37%
108 | B3 | 40%

Target: AxCT mask27 EpCAM H90.2 NCLV

Row | Protein | Percent cleavage
109 | B1 | 0%
110 | B2 | 0%
111 | B3 | 0%
